For the assay, the target named is T1, Nup58(239–415), entire ordered region of Nup58 from Rattus norvegicus, His6 tag cleaved (Rattus norvegicus, UniProt P70581 239-415).
T1 construct: Nup58, Rattus norvegicus, residues 239-415 (entire ordered region); source: co-expressed with Nup54 and Nup62 from a polycistronic vector; not shown: His6, N-terminal, cleaved
T1 sequence: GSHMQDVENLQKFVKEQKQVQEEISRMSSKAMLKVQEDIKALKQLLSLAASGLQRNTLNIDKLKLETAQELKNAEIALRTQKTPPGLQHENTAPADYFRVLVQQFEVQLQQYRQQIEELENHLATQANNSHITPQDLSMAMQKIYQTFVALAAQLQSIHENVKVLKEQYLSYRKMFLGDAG
Nature of the assay: SEC; competition: preassembled triple complex (1.5 mg/ml) incubated with Nup54 (453–494) wild type or H469F/Q473L (0.6 mg/ml), then size-exclusion chromatography and SDS-PAGE of column fractions. The following applies: both partners purified. (SEC sorts molecules by how far they enter the pores of the column.)

B1: wild-type Nup54 (453–494), Nup58-cognate segment of Nup54 (domain or fragment, Rattus norvegicus, UniProt P70582 453-494, looked up)
chain: EEKYYIDADLLREIKQHLKQQQEGLSHLISIIKDDLEDIKLV
notes: also called Nup54 segment; wt Nup54 (453–494)
For B1, the binding result was “binds”.

Values taken from PMC4513098, “Ordered Regions of Channel Nucleoporins Nup62, Nup54, and Nup58 Form Dynamic Complexes in Solution*” (The Journal of Biological Chemistry, 2015).
